This passage reports binding result and Kd results from publication PMC9900698, “Phosphorylation Regulation of a Histone-like HU Protein from Deinococcus radiodurans”.

Where a chain is given by its changes, count along the chain named.

To fix the notation:
B1: Duplex DNA (24bp) (dsDNA)
DNA 1: TCAATTATGTCAATGACATAAAAG
DNA 2: CTTTTATGTCATTGACATAATTGA
B2: Duplex DNA (48bp) (dsDNA)
DNA 1: TAACAAGCAGAGTCAATTATGTCAATGACATAAAAGGCTCAGGCCTTC
DNA 2: GAAGGCCTGAGCCTTTTATGTCATTGACATAATTGACTCTGCTTGTTA
B3: Duplex DNA (36bp) (dsDNA)
DNA 1: GCAGAGTCAATTATGTCAATGACATAAAAGGCTCAG
DNA 2: CTGAGCCTTTTATGTCATTGACATAATTGACTCTGC

One series deals with T1, DrHU T37A (Deinococcus radiodurans R1 (ATCC13939), UniProt Q9RZ89 1-122, T37A).
T1 sequence: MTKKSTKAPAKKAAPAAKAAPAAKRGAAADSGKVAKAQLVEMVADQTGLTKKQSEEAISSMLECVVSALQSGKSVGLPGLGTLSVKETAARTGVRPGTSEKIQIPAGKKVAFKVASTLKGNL
Nature of the series: EMSA; 10 mM Mg2+; EMSA: 50 mM NaCl, 20 mM Tris-HCl pH 8.0, 0.1 mg/ml BSA, 3 mM DTT, 0.1 mM EDTA, 10% glycerol, 10 mM MgCl2, 50 nM DNA, 0-3200 nM DrHU, room temperature 20 min; 22% native PAGE in 1x TB. The settings on record: protein: recombinant; tags: N-terminal His-MBP (pET28a-HMT), removed by TEV; chain copies: 2; label: 5'-FAM; blunt. In general terms: A gel shift assay detects complexes by their altered migration in electrophoresis.
With B1, the binding result was “no binding”.
Regarding B2, the binding result is “no binding”.
In the case of B3, the binding result was “no binding”.

Another series deals with T2, DrHU T37E (Deinococcus radiodurans R1 (ATCC13939), UniProt Q9RZ89 1-122, T37E).
T2 sequence: T1 sequence with A37E
The description is as above. The note with it: protein: recombinant; tags: N-terminal His-MBP (pET28a-HMT), removed by TEV; chain copies: 2; label: 5'-FAM; blunt.
With B1, the Kd – broadly, a measure of binding affinity in units of concentration – was determined as 1180 ± 95.9 nM.
The same measure, in the same setting: to B2 belongs 389 ± 56 nM.
The same measure, in the same setting: the same measure for B3: 457 ± 62.9 nM.
